These are literature values, as cited in article PMC10179296.

For the data set, the target named is CCL2 (Homo sapiens) (UniProt P13500). Nature of the data set: isothermal fluorescence titration.
Chain of CCL2 (Homo sapiens) (P13500 24-99): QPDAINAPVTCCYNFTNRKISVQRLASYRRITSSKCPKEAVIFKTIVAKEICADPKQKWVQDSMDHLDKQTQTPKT

Chain of Tenascin-C (P24821 23-2201): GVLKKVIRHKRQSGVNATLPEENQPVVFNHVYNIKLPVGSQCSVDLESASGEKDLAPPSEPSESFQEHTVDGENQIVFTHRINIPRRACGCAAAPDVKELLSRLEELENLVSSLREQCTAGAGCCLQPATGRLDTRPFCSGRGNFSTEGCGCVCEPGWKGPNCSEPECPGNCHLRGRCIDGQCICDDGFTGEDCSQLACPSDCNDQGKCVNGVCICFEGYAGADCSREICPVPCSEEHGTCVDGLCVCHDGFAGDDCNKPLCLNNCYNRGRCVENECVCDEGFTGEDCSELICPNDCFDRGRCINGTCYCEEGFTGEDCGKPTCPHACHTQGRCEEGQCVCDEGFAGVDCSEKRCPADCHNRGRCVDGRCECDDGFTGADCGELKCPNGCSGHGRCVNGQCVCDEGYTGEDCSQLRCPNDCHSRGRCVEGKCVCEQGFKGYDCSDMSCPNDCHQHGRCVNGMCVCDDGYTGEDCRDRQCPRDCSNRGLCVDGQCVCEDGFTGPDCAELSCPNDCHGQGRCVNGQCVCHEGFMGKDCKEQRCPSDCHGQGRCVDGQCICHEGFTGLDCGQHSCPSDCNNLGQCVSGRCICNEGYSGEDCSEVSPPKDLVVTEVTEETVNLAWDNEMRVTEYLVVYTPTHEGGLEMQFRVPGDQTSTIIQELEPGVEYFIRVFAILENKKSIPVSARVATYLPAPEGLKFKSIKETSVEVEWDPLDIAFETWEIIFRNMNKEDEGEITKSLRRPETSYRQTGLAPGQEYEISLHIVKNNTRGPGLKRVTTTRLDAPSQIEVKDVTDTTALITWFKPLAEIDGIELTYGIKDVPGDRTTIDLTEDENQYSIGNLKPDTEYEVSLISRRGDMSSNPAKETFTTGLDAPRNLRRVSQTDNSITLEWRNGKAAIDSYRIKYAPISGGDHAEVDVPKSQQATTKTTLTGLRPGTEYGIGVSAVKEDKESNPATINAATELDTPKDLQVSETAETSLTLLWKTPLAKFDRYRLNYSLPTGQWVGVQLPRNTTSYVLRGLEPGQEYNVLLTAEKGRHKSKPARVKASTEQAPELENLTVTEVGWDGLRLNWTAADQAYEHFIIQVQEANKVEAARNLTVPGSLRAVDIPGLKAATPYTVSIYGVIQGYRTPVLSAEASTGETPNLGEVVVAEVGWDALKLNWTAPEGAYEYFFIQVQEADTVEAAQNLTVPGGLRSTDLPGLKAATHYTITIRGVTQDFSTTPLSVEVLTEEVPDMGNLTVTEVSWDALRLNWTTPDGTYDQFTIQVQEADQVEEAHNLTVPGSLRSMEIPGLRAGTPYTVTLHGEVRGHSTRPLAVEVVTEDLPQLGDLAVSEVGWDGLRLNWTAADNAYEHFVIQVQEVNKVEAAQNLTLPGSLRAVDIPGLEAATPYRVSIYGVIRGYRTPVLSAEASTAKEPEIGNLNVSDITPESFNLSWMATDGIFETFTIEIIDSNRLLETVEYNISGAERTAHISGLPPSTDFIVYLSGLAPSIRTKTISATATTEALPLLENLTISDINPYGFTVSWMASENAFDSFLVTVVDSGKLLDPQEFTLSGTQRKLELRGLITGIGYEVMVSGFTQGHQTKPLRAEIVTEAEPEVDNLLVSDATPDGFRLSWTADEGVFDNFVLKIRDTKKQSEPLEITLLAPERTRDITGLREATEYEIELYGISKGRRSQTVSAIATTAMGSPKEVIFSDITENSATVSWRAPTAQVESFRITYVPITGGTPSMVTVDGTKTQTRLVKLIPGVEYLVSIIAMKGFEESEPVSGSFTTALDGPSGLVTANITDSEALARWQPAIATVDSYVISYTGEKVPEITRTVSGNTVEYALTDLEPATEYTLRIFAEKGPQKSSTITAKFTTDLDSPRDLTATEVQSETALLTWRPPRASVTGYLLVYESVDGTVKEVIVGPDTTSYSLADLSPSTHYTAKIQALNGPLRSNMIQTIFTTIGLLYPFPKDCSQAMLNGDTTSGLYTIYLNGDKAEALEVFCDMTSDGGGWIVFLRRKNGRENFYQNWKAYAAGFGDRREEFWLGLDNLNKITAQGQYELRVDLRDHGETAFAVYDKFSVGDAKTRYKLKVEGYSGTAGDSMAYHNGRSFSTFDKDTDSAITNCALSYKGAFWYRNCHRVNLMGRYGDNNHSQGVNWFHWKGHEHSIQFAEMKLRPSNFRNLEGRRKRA

One may read the Kd as the concentration at which binding is half-saturated. Consider Tenascin-C (from UniProt P24821), for which the Kd is 2.33 µM.
